The labels stand for the following.
B1: Mitochondrial intermembrane space import and assembly protein 40 (Saccharomyces cerevisiae), P36046 (parent)
chain: MLRNLVVRNACRNRPSIQVARGLCRHQTRRLMASSPQFGRNSNQEKTAGFIMGILSMAGALYFIAPNRKPLFASRKVESDKTAEEELSSGGEQSPENEDDNNSKSDENGDDNDSKNDETEAGPQLGGDKIGASKVAEDGELVVLAEEDNKSSEDKDTDESKVSTKDDEQSNEDNATANNQKDENISSENSEENTSDKTLDNNAGSSEKKDPEHSDDEKSQQGQSDDKTTTEDNNGEEESSKKTVSDSENSAKQSESSDEEKEELRKQEEKQMGPTEEEVQHEGAYNPDTGEINWDCPCLGGMAHGPCGEEFKSAFSCFVYSEAEPKGIDCVEKFQHMQDCFRKYPEHYAEQLKETSDDEEPQDKVKVNTIESAPNVSSAKENAAKKAEQSDVKKEPLNEESKP
partner: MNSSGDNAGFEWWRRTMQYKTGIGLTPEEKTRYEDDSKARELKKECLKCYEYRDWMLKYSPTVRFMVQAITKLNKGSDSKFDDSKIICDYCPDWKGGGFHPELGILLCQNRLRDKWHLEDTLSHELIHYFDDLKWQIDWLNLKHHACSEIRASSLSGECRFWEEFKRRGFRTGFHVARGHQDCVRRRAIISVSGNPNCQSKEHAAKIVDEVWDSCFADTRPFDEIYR

Results on two variants are retold here after IntAct's records for PubMed 22990235.

Variants of B1 are the subject of this experiment. To be noted: with atp23_yeast ATP23, P53722.
MLRNLVVRNACRNRPSIQVARGLCRHQTRRLMASSPQFGRNSNQEKTAGFIMGILSMAGALYFIAPNRKPLFASRKVESDKTAEEELSSGGEQSPENEDDNNSKSDENGDDNDSKNDETEAGPQLGGDKIGASKVAEDGELVVLAEEDNKSSEDKDTDESKVSTKDDEQSNEDNATANNQKDENISSENSEENTSDKTLDNNAGSSEKKDPEHSDDEKSQQGQSDDKTTTEDNNGEEESSKKTVSDSENSAKQSESSDEEKEELRKQEEKQMGPTEEEVQHEGAYNPDTGEINWDCPCLGGMAHGPCGEEFKSAESCFVYSEAEPKGIDCVEKFQHMQDCFRKYPEHYAEQLKETSDDEEPQDKVKVNTIESAPNVSSAKENAAKKAEQSDVKKEPLNEESKP [F315E]: the “effect of a mutation on the interaction” value is on record as “decreasing interaction”.

On to MLRNLVVRNACRNRPSIQVARGLCRHQTRRLMASSPQFGRNSNQEKTAGFIMGILSMAGALYFIAPNRKPLFASRKVESDKTAEEELSSGGEQSPENEDDNNSKSDENGDDNDSKNDETEAGPQLGGDKIGASKVAEDGELVVLAEEDNKSSEDKDTDESKVSTKDDEQSNEDNATANNQKDENISSENSEENTSDKTLDNNAGSSEKKDPEHSDDEKSQQGQSDDKTTTEDNNGEEESSKKTVSDSENSAKQSESSDEEKEELRKQEEKQMGPTEEEVQHEGAYNPDTGEINWDCPCLGGMAHGPCGEEFKSAFSCEVYSEAEPKGIDCVEKFQHMQDCFRKYPEHYAEQLKETSDDEEPQDKVKVNTIESAPNVSSAKENAAKKAEQSDVKKEPLNEESKP [F318E], for which the “effect of a mutation on the interaction” value is “decreasing interaction”.
